Among the targets are RIMS1, Q86UR5; SDCBP_1, O00560; PDZD9, Q8IXQ8; MAGI1_5, Q96QZ7; MAST3, O60307; PARD3B_2, Q8TEW8; RIMS2, Q9UQ26; RGS3, P49796-9; DLG2_1, Q15700; LIMK1, P53667; GIPC3, Q8TF64; Q9NPB6.
Experiment in all cases: holdup assay
Common to all, as to design: key: below the threshold = too weak to quantify, mostly under pKd 3.1 to 4
Conditions in all cases: plain residues with an end cap or a label only (N-terminal biotin on a linker: ttds)

The next assay concerns the target T1, PDZD7_1, Q9H5P4.
T1 sequence (Q9H5P4 81-178, limits assumed, looked up): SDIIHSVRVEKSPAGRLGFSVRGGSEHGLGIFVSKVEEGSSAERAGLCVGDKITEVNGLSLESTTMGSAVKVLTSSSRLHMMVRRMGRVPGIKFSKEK

Another assay deals with T2, PDZD2_6, O15018.
T2 sequence (O15018 2745-2839, limits assumed, looked up): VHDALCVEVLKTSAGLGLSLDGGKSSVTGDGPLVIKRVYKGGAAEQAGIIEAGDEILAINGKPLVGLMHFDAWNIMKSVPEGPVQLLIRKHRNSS

The next assay concerns the target T3, PTPN13_5, Q12923.
T3 sequence (Q12923 1877-1975, limits assumed, looked up): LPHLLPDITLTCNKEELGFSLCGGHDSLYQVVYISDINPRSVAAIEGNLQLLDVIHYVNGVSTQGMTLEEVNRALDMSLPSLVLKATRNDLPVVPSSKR

The target of a further assay is T4, USH1C_1, Q9Y6N9.
T4 sequence (Q9Y6N9 82-179, limits assumed, looked up): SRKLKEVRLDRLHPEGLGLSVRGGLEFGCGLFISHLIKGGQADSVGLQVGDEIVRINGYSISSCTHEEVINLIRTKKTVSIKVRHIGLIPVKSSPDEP

Another assay concerns the target T5, SHROOM4, Q9ULL8.
T5 sequence (Q9ULL8 5-102, limits assumed, looked up): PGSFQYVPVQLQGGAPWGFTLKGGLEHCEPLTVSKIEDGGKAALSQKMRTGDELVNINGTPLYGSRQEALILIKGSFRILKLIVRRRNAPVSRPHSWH

In another assay the target is T6, MPP1, Q00013.
T6 sequence (Q00013 66-162, limits assumed, looked up): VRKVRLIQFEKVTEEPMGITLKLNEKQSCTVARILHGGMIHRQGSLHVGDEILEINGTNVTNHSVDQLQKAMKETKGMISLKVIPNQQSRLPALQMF

In another assay the target is T7, USH1C_3, Q9Y6N9.
T7 sequence (Q9Y6N9 447-547, limits assumed, looked up): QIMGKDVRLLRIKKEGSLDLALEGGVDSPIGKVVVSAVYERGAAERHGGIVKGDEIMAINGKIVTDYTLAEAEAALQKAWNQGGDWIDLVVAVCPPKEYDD

Another assay addresses T8, PREX2_2, Q70Z35.
T8 sequence (Q70Z35 672-764, limits assumed, looked up): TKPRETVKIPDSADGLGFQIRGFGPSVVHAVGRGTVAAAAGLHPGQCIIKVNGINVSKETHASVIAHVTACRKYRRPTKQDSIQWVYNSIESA

A further assay deals with T9, SHANK3, Q9BYB0.
T9 sequence (Q9BYB0 641-750, limits assumed, looked up): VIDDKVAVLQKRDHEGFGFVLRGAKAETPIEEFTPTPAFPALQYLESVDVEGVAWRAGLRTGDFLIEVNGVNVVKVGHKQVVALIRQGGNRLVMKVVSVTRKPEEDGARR

The next assay deals with T10, MPP5, Q8N3R9.
T10 sequence (Q8N3R9 251-346, limits assumed, looked up): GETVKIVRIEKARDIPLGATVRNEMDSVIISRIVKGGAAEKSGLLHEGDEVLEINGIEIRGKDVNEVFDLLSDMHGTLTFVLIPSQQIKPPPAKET

The next assay addresses T11, GIPC1, O14908.
T11 sequence (O14908 128-223, limits assumed, looked up): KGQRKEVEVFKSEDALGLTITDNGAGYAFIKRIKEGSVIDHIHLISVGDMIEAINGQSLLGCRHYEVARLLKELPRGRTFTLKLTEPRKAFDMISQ

Another assay deals with T12, APBA3_2, O96018.
T12 sequence (O96018 480-570, limits assumed, looked up): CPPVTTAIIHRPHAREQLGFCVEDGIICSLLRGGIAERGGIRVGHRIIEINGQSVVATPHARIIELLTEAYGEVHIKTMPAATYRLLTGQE

Another assay has as its target T13, LNX2_4, Q8N448.
T13 sequence (Q8N448 595-690, limits assumed, looked up): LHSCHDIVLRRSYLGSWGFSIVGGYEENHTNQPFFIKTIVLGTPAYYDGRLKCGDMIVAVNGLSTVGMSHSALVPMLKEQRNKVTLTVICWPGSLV

MAST3, O60307, sequence (O60307 945-1048): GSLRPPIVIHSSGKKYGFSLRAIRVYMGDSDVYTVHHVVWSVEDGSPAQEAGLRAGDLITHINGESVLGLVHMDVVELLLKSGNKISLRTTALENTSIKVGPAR
PDZD9, Q8IXQ8, sequence (Q8IXQ8 23-120): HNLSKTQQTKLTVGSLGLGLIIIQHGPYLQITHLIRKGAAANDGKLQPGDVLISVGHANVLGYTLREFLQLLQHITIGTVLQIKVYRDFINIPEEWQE
SDCBP_1, O00560, sequence (O00560 111-198): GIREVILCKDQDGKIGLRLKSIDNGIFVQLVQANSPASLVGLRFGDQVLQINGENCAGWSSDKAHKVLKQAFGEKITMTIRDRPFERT
GIPC3, Q8TF64, sequence (Q8TF64 107-202): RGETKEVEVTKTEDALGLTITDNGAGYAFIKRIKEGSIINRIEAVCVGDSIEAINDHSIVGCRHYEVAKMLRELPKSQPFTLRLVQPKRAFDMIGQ
PARD3B_2, Q8TEW8, sequence (Q8TEW8 376-471): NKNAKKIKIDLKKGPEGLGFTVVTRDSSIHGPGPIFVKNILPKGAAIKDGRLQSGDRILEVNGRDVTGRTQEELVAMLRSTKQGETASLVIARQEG
MAGI1_5, Q96QZ7, sequence (Q96QZ7 986-1098): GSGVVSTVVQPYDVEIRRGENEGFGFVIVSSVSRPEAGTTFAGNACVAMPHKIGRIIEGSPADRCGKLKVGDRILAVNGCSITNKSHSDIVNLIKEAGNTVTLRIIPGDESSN
RIMS2, Q9UQ26, sequence (Q9UQ26 637-758): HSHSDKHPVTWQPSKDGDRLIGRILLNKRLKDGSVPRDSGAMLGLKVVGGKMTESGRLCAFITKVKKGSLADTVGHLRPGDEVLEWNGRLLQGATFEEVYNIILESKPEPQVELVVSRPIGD
RIMS1, Q86UR5, sequence (Q86UR5 584-692): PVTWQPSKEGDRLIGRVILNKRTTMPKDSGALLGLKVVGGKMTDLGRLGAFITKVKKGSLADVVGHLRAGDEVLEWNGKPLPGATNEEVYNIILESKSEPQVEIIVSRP
RGS3, P49796-9, sequence (P49796 other isoform, or with tags, fused parts or gaps): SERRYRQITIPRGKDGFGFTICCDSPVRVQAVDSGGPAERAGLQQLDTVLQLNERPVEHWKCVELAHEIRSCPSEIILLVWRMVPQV
LIMK1, P53667, sequence (P53667 155-268): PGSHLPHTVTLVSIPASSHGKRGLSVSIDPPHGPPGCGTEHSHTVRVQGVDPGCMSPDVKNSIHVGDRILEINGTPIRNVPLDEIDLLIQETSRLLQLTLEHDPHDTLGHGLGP

B1: NET1, Q7Z628 (peptide)
chain: SGGKRKETLV
As for B1, the negative logarithm of the Kd (pKd) (in general, the negative decadic logarithm of the Kd, by convention in mol/L) in the assay with PDZD7_1, Q9H5P4 is “below the threshold”; in the assay with RIMS1, Q86UR5, “below the threshold”; in the assay with SDCBP_1, O00560, “below the threshold”; with PDZD2_6, O15018 it was “below the threshold”; with PTPN13_5, Q12923 it was “below the threshold”; with PDZD9, Q8IXQ8, “below the threshold”. The pKd with MAGI1_5, Q96QZ7 was 4.72; with USH1C_1, Q9Y6N9, “below the threshold”; with MAST3, O60307 it was “below the threshold”; in the assay with PARD3B_2, Q8TEW8, “below the threshold”; with SHROOM4, Q9ULL8, “below the threshold”; with MPP1, Q00013, “below the threshold”. Besides, the negative-log Kd (pKd) result with USH1C_3, Q9Y6N9 was “below the threshold”; in the assay with RIMS2, Q9UQ26, “below the threshold”; with RGS3, P49796-9, “below the threshold”; with PREX2_2, Q70Z35, 3.79; with SHANK3, Q9BYB0, “below the threshold”; with MPP5, Q8N3R9, “below the threshold”. For the same molecule, the negative logarithm of the Kd (pKd) with GIPC1, O14908 is 4.28; with APBA3_2, O96018 it was “below the threshold”; with DLG2_1, Q15700, 4.87.

B2: HPV33-E6, P06427 (peptide)
chain: SRSRRRETAL
For B2, the pKd entry with PDZD7_1, Q9H5P4 is “below the threshold”; with RIMS1, Q86UR5, “below the threshold”; in the assay with SDCBP_1, O00560, “below the threshold”; with PDZD2_6, O15018, “below the threshold”; with PTPN13_5, Q12923, “below the threshold”; with LNX2_4, Q8N448, “below the threshold”. Also, the negative logarithm of the Kd (pKd) entry is “below the threshold” with PDZD9, Q8IXQ8; “below the threshold” in the assay with MAGI1_5, Q96QZ7; “below the threshold” with LIMK1, P53667; “below the threshold” with USH1C_1, Q9Y6N9; “below the threshold” in the assay with MAST3, O60307; “below the threshold” in the assay with PARD3B_2, Q8TEW8. Moreover, the pKd result in the assay with SHROOM4, Q9ULL8 is “below the threshold”; in the assay with MPP1, Q00013, 4.79; in the assay with USH1C_3, Q9Y6N9, “below the threshold”; in the assay with RIMS2, Q9UQ26, “below the threshold”; with RGS3, P49796-9, “below the threshold”; in the assay with PREX2_2, Q70Z35 it was “below the threshold”. Besides, the negative logarithm of the Kd (pKd) result with GIPC3, Q8TF64 is “below the threshold”; in the assay with SHANK3, Q9BYB0, “below the threshold”; with MPP5, Q8N3R9, “below the threshold”; with GIPC1, O14908, “below the threshold”; with APBA3_2, O96018, 4.28; with DLG2_1, Q15700, 5.13.

B3: HPV82-E6, Q9IR59 (peptide)
chain: PPRQRSETQV
For the molecule B3, the pKd result with PDZD7_1, Q9H5P4 is listed as “below the threshold”; with RIMS1, Q86UR5 it was “below the threshold”; with SDCBP_1, O00560, “below the threshold”; in the assay with PDZD2_6, O15018 it was “below the threshold”; with Q9NPB6, “below the threshold”; in the assay with PTPN13_5, Q12923, “below the threshold”. In addition, the negative logarithm of the Kd (pKd) entry is “below the threshold” with LNX2_4, Q8N448; “below the threshold” with PDZD9, Q8IXQ8; 4.37 in the assay with MAGI1_5, Q96QZ7; “below the threshold” in the assay with USH1C_1, Q9Y6N9; “below the threshold” with MAST3, O60307; “below the threshold” with PARD3B_2, Q8TEW8. For the same molecule, the negative-log Kd (pKd) entry is “below the threshold” in the assay with SHROOM4, Q9ULL8; 5.75 with MPP1, Q00013; “below the threshold” with USH1C_3, Q9Y6N9; “below the threshold” with RIMS2, Q9UQ26; “below the threshold” with RGS3, P49796-9; “below the threshold” in the assay with PREX2_2, Q70Z35. In addition, the pKd result with GIPC3, Q8TF64 is “below the threshold”; in the assay with SHANK3, Q9BYB0, “below the threshold”; with MPP5, Q8N3R9, “below the threshold”; with GIPC1, O14908, 4.27; with APBA3_2, O96018 it was “below the threshold”; with DLG2_1, Q15700, 4.32.

B4: RASSF6, Q6ZTQ3 (peptide)
chain: KLVIKTETTV
Take B4: the pKd result in the assay with PDZD7_1, Q9H5P4 was “below the threshold”; with RIMS1, Q86UR5, “below the threshold”; in the assay with SDCBP_1, O00560, “below the threshold”; in the assay with PDZD2_6, O15018 it was “below the threshold”; with Q9NPB6 it was “below the threshold”; with PTPN13_5, Q12923 it was “below the threshold”. The pKd result is “below the threshold” with LNX2_4, Q8N448; “below the threshold” in the assay with PDZD9, Q8IXQ8; 4.23 in the assay with MAGI1_5, Q96QZ7; 4.37 with LIMK1, P53667; “below the threshold” in the assay with USH1C_1, Q9Y6N9; “below the threshold” with MAST3, O60307. Further, the negative logarithm of the Kd (pKd) entry with PARD3B_2, Q8TEW8 was “below the threshold”; in the assay with SHROOM4, Q9ULL8, “below the threshold”; with MPP1, Q00013, 5.13; with USH1C_3, Q9Y6N9 it was “below the threshold”; in the assay with RIMS2, Q9UQ26, “below the threshold”; with RGS3, P49796-9, “below the threshold”. The pKd entry is “below the threshold” with PREX2_2, Q70Z35; “below the threshold” with GIPC3, Q8TF64; “below the threshold” in the assay with SHANK3, Q9BYB0; “below the threshold” in the assay with MPP5, Q8N3R9; 4.57 with GIPC1, O14908; 4.95 in the assay with DLG2_1, Q15700.

For the origin of these results see article PMC9482650, “Quantitative fragmentomics allow affinity mapping of interactomes” (Nature Communications, 2022).
